{
  "source": "paper PMC11432317",
  "about": "“Disulfide Bond Engineering of Soluble ACE2 for Thermal Stability Enhancement” (International Journal of Molecular Sciences, 2024)",
  "biological_target": "T1, receptor binding domain (RBD) of the SARS-CoV-2 spike protein (residues 319-541) (SARS-CoV-2, UniProt P0DTC2 319-541)",
  "T1 construct": "also called spike RBD protein",
  "assay": "SPR",
  "conditions": "both partners purified",
  "data": [
    {"binder": "I54C/K341C (M2) mutant sACE2-Fc (Fc fusion, also called M2 sACE2-Fc) QSTIEEQAKTFLDKFNHEAEDLFYQSSLASWNYNTNCTEENVQNMNNAGDKWSAFLKEQSTLAQMYPLQEIQNLTVKLQLQALQQNGSSVLSEDKSKRLNTILNTMSTIYSTGKVCNPDNPQECLLLEPGLNEIMANSLDYNERLWAWESWRSEVGKQLRPLYEEYVVLKNEMARANHYEDYGDYWRGDYEVNGVDGYDYSRGQLIEDVEHTFEEIKPLYEHLHAYVRAKLMNAYPSYISPIGCLPAHLLGDMWGRFWTNLYSLTVPFGQKPNIDVTDAMVDQAWDAQRIFKEAEKFFVSVGLPNMTQGFWENSMLTDPGNVQCAVCHPTAWDLGKGDFRILMCTKVTMDDFLTAHNEMGNIQYDMAYAAQPFLLRNGANEGFHEAVGEIMSLSAATPKHLKSIGLLSPDFQEDNETEINFLLKQALTIVGTLPFTYMLEKWRWMVFKGEIPKDQWMKKWWEMKREIVGVVEPVPHDETYCDPASLFHVSNDYSFIRYYTRTLYQFQFQEALCQAAKHEGPLHKCDISNSTEAGQKLFNMLRLGKSEPWTLALENVVGAKNMNVRPLLNYFEPLFTWLKDQNKNSFVGWSTDWSPYAD", "values": [
      {"measurement": "Kd", "result": 22.1, "unit": "nM"}
    ]}
  ]
}
